Source: patent publication US20080193431

Biological target: T1, Ac-DEVD-CHO
T1 chain: DEVD

B1: caspase-3 (protein)
chain: SGISLDNSYKMDYPEMGLCIIINNKNFHKSTGMTSRSGTDVDAANLRETFRNLKYEVRNKNDLTREEIVELMRDVSKEDHSKRSSFVCVLLSHGEEGIIFGTNGPVDLKKITNFFRGDRCRSLTGKPKLFIIQACRGTELDCGIETDSGVDDDMACHKIPVEADFLYAYSTAPGYYSWRNSKDGSWFIQSLCAMLKQYADKLEFMHILTRVNRKVATEFESFSFDATFHAKKQIPCIVSMLTKELYFYH
enzyme activity (caspase-3 cleavage of PPC, HPLC): completely blocked the enzyme activity
